This experiment has as its target GSnP-6. In words: SPR. (In SPR one partner is held on a chip, and binding of the other changes the refractive index at the surface.)

The source of these data is paper PMC4423566 (Nature communications, 2015).

One may read the Kd as a measure of binding affinity in units of concentration. High values mean a looser complex, low ones a tighter complex. In turn, “recombinant human P-selectin Fc chimera (from UniProt P16109 42-771) (Fc fusion)” came in with a Kd of 22 nM.

B1: L-sel-Ig (Biacore assay, species not stated) (Fc fusion)
chain: WTYHYSEKPMNWQRARRFCRDNYTDLVAIQNKAEIEYLEKTLPFSRSYYWIGIRKIGGIWTWVGTNKSLTEEAENWGDGEPNNKKNKEDCVEIYIKRNKDAGKWNDDACHKLKAALCYTASCQPWSCSGHGECVEIINNYTCNCDVGYYGPQCQFVIQCEPLEAPELGTMDCTHPLGNFSFSSQCAFSCSEGTNLTGIEETTCGPFGNWSSPEPTCQVIQCEPLSAPDLGIMNCSHPLASFSFTSACTFICSEGTELIGKKKTICESSGIWSNPSPICQKLDKSFSMIKEGDYN
Consider B1, for which the fold lower affinity than P-Sel-Ig was 25 fold.

B2: E-sel-Ig (Biacore assay, species not stated) (Fc fusion)
chain: WSYNTSTEAMTYDEASAYCQQRYTHLVAIQNKEEIEYLNSILSYSPSYYWIGIRKVNNVWVWVGTQKPLTEEAKNWAPGEPNNRQKDEDCVEIYIKREKDVGMWNDERCSKKKLALCYTAACTNTSCSGHGECVETINNYTCKCDPGFSGLKCEQIVNCTALESPEHGSLVCSHPLGNFSYNSSCSISCDRGYLPSSMETMQCMSSGEWSAPIPACNVVECDAVTNPANGFVECFQNPGSFPWNTTCTFDCEEGFELMGAQSLQCTSSGNWDNEKPTCKAVTCRAVRQPQNGSVRCSHSPAGEFTFKSSCNFTCEEGFMLQGPAQVECTTQGQWTQQIPVCEAFQCTALSNPERGYMNCLPSASGSFRYGSSCEFSCEQGFVLKGSKRLQCGPTGEWDNEKPTCEAVRCDAVHQPPKGLVRCAHSPIGEFTYKSSCAFSCEEGFELHGSTQLECTSQGQWTEEVPSCQVVKCSSLAVPGKINMSCSGEPVFGTVCKFACPEGWTLNGSAARTCGATGHWSGLLPTCEAPTESNIP
On to B2, for which the fold lower affinity than P-Sel-Ig turned out to be 25 fold.

B3: recombinant mouse P-selectin Fc chimera (Fc fusion)
chain: WTYNYSTKAYSWNNSRVFCRRHFTDLVAIQNKNEIAHLNDVIPFFNSYYWIGIRKINNKWTWVGTNKTLTEEAENWADNEPNNKKNNQDCVEIYIKSNSAPGKWNDEPCFKRKRALCYTASCQDMSCSNQGECIETIGSYTCSCYPGFYGPECEYVKECGKVNIPQHVLMNCSHPLGEFSFNSQCTFSCAEGYELDGPGELQCLASGIWTNNPPKCDAVQCQSLEAPPHGTMACMHPIAAFAYDSSCKFECQPGYRARGSNTLHCTGSGQWSEPLPTCEAIACEPPEIPIHGSMDCVPSTGTFGYNSSCTFLCAEGFVLKGNDAIQCADSGQWTAPAPFCEALQCPEFPVPSKAQVNCSDPFGTLTYQSVCSFSCDEGSLLVGASVIRCLATGHWNGAPPECQAVSCAPMLSPENGSMTCVQPLGNSTYKSTCQFMCDEGFYLSGPERLDCSPSGHWTGTPPTCEAIKCPGIFAPEQGNLDCSHVHGEFGVGSICHFSCNEDFELLGSENVECTVSGRWSAPPPTCKGITSLPAPAVRCPALTTPGQGTMSCQHHLGSFGPNTTCYFGCKTGFTLRGANSLRCRASGQWTAVTPMCRAVKCSELHMDTAVAMNCSNPWGNFSYGSTCTFQCPEGQSLNGSVRATCREDGHWSDAMPTCQAGTLTIQEA
For the molecule B3, the fold change of Kd against human P-selectin amounted to 9 fold.
